Results as given in PMC6610696 (Structure (London, England : 1993), 2019).
Residue numbers refer to the chain shown, from its start. Names and notes keep the numbering of the source. Like-named read-outs stand apart in the source and are kept apart here. Square brackets hold non-standard residues; d marks the D form. Ends that are not written are not given here. pS = N[C@@H](COP(=O)(O)O)C(=O)O

B1: Nrd1 CID D70A mutant (domain or fragment, S. cerevisiae, UniProt P53617 6-151, looked up)
chain: DFQNFVATLESFKDLKSGISGSRIKKLTTYALDHIDIESKIISLIIDYSRLCPDSHKLGSLYIIASIGRAYLDETRSNSNSSSNKPGTCAHAINTLGEVIQELLSDAIAKSNQDHKEKIRMLLDIWDRSGLFQKSYLNAIRSKCFA
B2: Nrd1 CID D70N mutant (domain or fragment, S. cerevisiae, UniProt P53617 6-151, looked up)
chain: B1 chain with A65N
B3: Nrd1 CID Y67A mutant (domain or fragment, S. cerevisiae, UniProt P53617 6-151, looked up)
chain: B1 chain with Y62A, A65D
B4: ScSen1-NIM2-FAM peptide (peptide)
peptide: DDEDDYTPSISD
modifications: also: 5-FAM label: N-terminal per methods, C-terminal per resources table

Legend:
Assay in all cases: fluorescence polarisation
[1] = biological target: T1, S. cerevisiae Nrd1 CID (residues 6-151), N-terminal hexa-histidine tag (S. cerevisiae, UniProt P53617 6-151)
T1 sequence (looked up): B1 chain with A65D

[2] = biological target: B4
[3] = biological target: T1, S. cerevisiae Nrd1 CID (residues …); remark: listed apart in the source

SPT[pS]PSYSPT[pS]PS [Pol II Ser5P CTD peptide]
Kd [1]: 216 µM

EQEDDYKLPMEYIT [ScSen1-NIM1 peptide]
Kd [1]: 7.6 µM

B1
fold increase in Kd for NIM2 against wild-type CID [2]: 30 fold

B2
fold increase in Kd for NIM2 against wild-type CID [2]: 3 fold

B3
fold increase in Kd for NIM2 against wild-type CID [2]: 90 fold

B4
Kd [3]: 0.56 µM

EAEDPYDLNPHPQ [ScSen1-NIM3 peptide]
Kd [1]: 38 µM

DDEDDYTPSISD [ScSen1-NIM2 peptide]
binding result [1]: binds

DDEDDYTVSISD [ScSen1-NIM2-P2060V peptide]
fold increase in Kd against wild-type NIM2 [1]: ~20 fold

DDENDYTPSISD [ScSen1-NIM2-D2056N peptide]
fold increase in Kd against wild-type NIM2 [1]: 13 fold

DDEDDYTASISD [ScSen1-NIM2-P2060A peptide]
fold increase in Kd against wild-type NIM2 [1]: ~20 fold
